Assay results taken from paper doi:10.1101/2021.12.02.471034.
Values joined by “and” are separate entries in the source; they are usually repeats but may differ in a detail not shown here. Equal values may be shown once.

T1: Heat shock factor 1 (Hsf1) (human), Q00613
T1 chain: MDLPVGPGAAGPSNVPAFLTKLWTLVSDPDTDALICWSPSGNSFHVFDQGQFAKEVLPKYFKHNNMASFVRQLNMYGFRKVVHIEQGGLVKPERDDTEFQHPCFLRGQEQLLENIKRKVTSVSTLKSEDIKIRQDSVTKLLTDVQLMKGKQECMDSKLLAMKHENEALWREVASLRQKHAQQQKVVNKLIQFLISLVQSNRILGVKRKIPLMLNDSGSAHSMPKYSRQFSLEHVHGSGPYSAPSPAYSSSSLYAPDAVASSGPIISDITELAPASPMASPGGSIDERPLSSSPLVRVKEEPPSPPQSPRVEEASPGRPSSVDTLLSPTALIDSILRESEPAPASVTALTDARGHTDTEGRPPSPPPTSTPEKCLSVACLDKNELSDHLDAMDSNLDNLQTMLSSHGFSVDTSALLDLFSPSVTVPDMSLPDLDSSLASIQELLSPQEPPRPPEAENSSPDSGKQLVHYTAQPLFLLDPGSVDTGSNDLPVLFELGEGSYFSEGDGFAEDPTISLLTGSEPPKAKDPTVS


Legend:
Assay in all cases: SEC-MALS
[1] = target: Hsf1 CS mutant (C35S/C103S/C153S/C373S/C378S) (human) (UniProt Q00613)
[2] = target: T1, Heat shock factor 1 (Hsf1) (human), …; conditions: remark: other sources report otherwise
[3] = target: T1, Heat shock factor 1 (Hsf1) (human), …; conditions: remark: other sources report otherwise

| stoichiometry N [1] | stoichiometry N [2] | stoichiometry N [3] | Molecule |
| --- | --- | --- | --- |
| 5 | – | – | Hsf1 CS mutant (C35S/C103S/C153S/C373S/C378S) (from UniProt Q00613 1-529) (natural protein) |
| – | 7 | 9 and < 16 | Heat shock factor 1 (Hsf1), Q00613 1-529 (natural protein) MDLPVGPGAAGPSNVPAFLTKLWTLVSDPDTDALICWSPSGNSFHVFDQGQFAKEVLPKYFKHNNMASFVRQLNMYGFRKVVHIEQGGLVKPERDDTEFQHPCFLRGQEQLLENIKRKVTSVSTLKSEDIKIRQDSVTKLLTDVQLMKGKQECMDSKLLAMKHENEALWREVASLRQKHAQQQKVVNKLIQFLISLVQSNRILGVKRKIPLMLNDSGSAHSMPKYSRQFSLEHVHGSGPYSAPSPAYSSSSLYAPDAVASSGPIISDITELAPASPMASPGGSIDERPLSSSPLVRVKEEPPSPPQSPRVEEASPGRPSSVDTLLSPTALIDSILRESEPAPASVTALTDARGHTDTEGRPPSPPPTSTPEKCLSVACLDKNELSDHLDAMDSNLDNLQTMLSSHGFSVDTSALLDLFSPSVTVPDMSLPDLDSSLASIQELLSPQEPPRPPEAENSSPDSGKQLVHYTAQPLFLLDPGSVDTGSNDLPVLFELGEGSYFSEGDGFAEDPTISLLTGSEPPKAKDPTVS |
